Test results reported in article PMC8301185, “Secondary Structure of the Novel Myosin Binding Domain WYR and Implications within Myosin Structure” (Biology, 2021).
Ends that are not written are not given here.

Key:
[1] = biological target: T1, LMM (V1346 through I1941 of D. melanogaster myosin heavy-chain) (Drosophila melanogaster, UniProt P05661); experiment: Co-sedimentation assay of LMM titrated by WYR; format: binding
T1 construct: encompassing V1346 through I1941 of D. melanogaster myosin heavy-chain; made in house; host or cells: E. coli BL-21(DE3) pLysS
Procedure: A 68.9 kDa 602 aa peptide encompassing V1346 through I1941 of D. melanogaster myosin heavy-chain (herein LMM) with an N-terminal 6× His-tag cloned into pET-23a vector was transformed into E. coli BL-21(DE3) pLysS cells. Cells were grown in Luria broth (LB) containing 100 µg/mL ampicillin and 50 µg/mL chloramphenicol. Upon reaching A600 of 0.8–1.0, culture was chilled on ice for 15 min, and expression was induced by adding IPTG to 0.75 mM and incubating for 16 h at 25 °C with gentle rocking. Induced cells were collected by centrifugation at 10,000 rcf for 10 min and stored as pellets at −40 °C. Pellets were resuspended in lysis buffer described by Korkmaz et al., and lysed by sonication. […] The relative purity of each fraction was assessed via SDS-PAGE stained with Krypton (Thermo Scientific, Rockford, IL, USA). […] Protein concentration was determined via absorbance at 280 nm using an extinction coefficient of 18450 cm^−1 M^−1. […]
Synthetic, 6.6 kDa 52 aa WYR peptide encompassing H84-T136 of D. melanogaster flightin was sourced from Genscript (Piscataway, NJ, USA). Peptide was suspended in ddH2O, filtered through a 0.22 µm Millipore filter, and concentration determined by micro BCA assay and absorbance at 280 nm using an extinction coefficient of 21,430 cm^−1 M^−1. […]

[2] = biological target: T2, Myosin heavy chain, muscle (LMM) 1346-1941 (Drosophila melanogaster, UniProt P05661); experiment: co-sedimentation
T2 chain: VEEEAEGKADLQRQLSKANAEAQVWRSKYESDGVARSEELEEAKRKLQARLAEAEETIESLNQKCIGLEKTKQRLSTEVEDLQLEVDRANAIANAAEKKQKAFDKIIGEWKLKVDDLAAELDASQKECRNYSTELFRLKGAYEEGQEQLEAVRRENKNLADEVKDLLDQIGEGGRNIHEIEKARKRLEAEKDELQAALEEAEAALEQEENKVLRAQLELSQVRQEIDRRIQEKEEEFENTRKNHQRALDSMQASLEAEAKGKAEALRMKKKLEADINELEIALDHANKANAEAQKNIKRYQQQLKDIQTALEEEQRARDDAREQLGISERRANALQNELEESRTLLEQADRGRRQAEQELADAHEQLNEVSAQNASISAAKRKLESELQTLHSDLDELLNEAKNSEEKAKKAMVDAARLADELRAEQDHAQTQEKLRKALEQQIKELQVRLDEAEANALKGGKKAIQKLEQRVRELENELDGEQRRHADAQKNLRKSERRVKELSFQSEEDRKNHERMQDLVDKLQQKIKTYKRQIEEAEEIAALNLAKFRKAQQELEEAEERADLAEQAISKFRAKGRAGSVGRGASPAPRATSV

[3] = Circular dichroism of LMM alone, secondary structure estimation; format: physicochemical; conditions: for CD maximum wavelength: MRE profile, Figure S9; for helicity, range over methods: without CONTIN, CDSSTR, BeStSel; for α helical content, range over methods: all methods
Procedure: A 68.9 kDa 602 aa peptide encompassing V1346 through I1941 of D. melanogaster myosin heavy-chain (herein LMM) with an N-terminal 6× His-tag cloned into pET-23a vector was transformed into E. coli BL-21(DE3) pLysS cells. Cells were grown in Luria broth (LB) containing 100 µg/mL ampicillin and 50 µg/mL chloramphenicol. Upon reaching A600 of 0.8–1.0, culture was chilled on ice for 15 min, and expression was induced by adding IPTG to 0.75 mM and incubating for 16 h at 25 °C with gentle rocking. Induced cells were collected by centrifugation at 10,000 rcf for 10 min and stored as pellets at −40 °C. Pellets were resuspended in lysis buffer described by Korkmaz et al., and lysed by sonication. To purify the MHC peptide, the lysate was rocked at 4 °C with Ni-NTA-agarose resin for one hour in a 20 mL column before being rinsed with 8 column volumes of 20 mM imidazole wash-buffer. The resin was then rinsed in two 15 mL portions of each 40- and 80 mM imidazole wash buffer, with 10 min of rocking in each 15 mL portion. The peptide was eluted in six 1 mL fractions and one 12 mL fraction for a total volume of 18 mL 200 mM imidazole elution buffer. All wash and elution buffers are variants of ‘Buffer A’ described by Korkmaz et al. with the following modifications: imidazole concentration was adjusted to 20 mM, 40 mM or 80 mM for wash buffer and to 200 mM for elution buffer. The relative purity of each fraction was assessed via SDS-PAGE stained with Krypton (Thermo Scientific, Rockford, IL, USA). Selected fractions were further purified and concentrated with an Amicon Ultra-15 50k centrifugal filter, and buffer exchanged into 400 mM NaF, 20 mM sodium phosphate pH 7.0, 1 mM TCEP for storage. Protein concentration was determined via absorbance at 280 nm using an extinction coefficient of 18450 cm^−1 M^−1. Densitometry using ImageJ was carried out on Krypton stained gels to ascertain purity of the sample [23] and the peptide identity verified by mass spectrometry.
WYR and LMM samples ranging from 0.5 to 10 µM were prepared in 700 µL of 215 mM NaF, 20 mM Sodium Phosphate, pH 7, 1 mM TCEP. LMM preparations were centrifuged at 10,000 rcf for 10 min and filtered through a 0.22 µm Millipore filter. Blank samples used an equivalent volume of filtrate from the final flow through from LMM concentrators as used in the experimental samples to account for any possible trace contaminant. These blanks were checked against equivalent freshly prepared buffer. A rectangular STARNA quartz cuvette with a pathlength of 0.2 cm was used throughout. Between experiment days the cuvette received a full wash with the provided STARNA detergent in accordance to STARNA protocol. Between samples, 1× 60% EtOH and 3× dH2O rinses were carried out and residual fluid was evaporated with pressurized nitrogen.
Samples were measured at 25 °C using a Jasco J-1700 spectropolarimeter at a scanning-speed of 20 nm/min with a digital integration time (DIT) of 8 s and bandwidth of 0.5–1 nm over six accumulations, minimally from 260–190 nm on continuous scan mode. A minimum n = 6 was used for measurements of the experimental combination of LMM and WYR and an n = 10 for WYR alone in 215 mM NaF, 20 mM Sodium Phosphate, pH 7, 1 mM TCEP. Wavelengths at maxima and minima, as well as θ222/208 and θ192/208 ellipticity ratios were recorded for all spectra. […] While other analysis programs exist, BeStSel is best suited for non-helical proteins of more unusual structure through both its diverse eight element modelling and inclusion of a basis dataset that incorporates proteins with rare secondary structures. BeStSel was most appropriate given the non-helical profile of WYR along with its high aromatic content and presence of proline.
Independent spectra for each peptide were evaluated after subtracting baseline spectra. […]

T1 sequence (P05661 1-1936 isoform P05661-24): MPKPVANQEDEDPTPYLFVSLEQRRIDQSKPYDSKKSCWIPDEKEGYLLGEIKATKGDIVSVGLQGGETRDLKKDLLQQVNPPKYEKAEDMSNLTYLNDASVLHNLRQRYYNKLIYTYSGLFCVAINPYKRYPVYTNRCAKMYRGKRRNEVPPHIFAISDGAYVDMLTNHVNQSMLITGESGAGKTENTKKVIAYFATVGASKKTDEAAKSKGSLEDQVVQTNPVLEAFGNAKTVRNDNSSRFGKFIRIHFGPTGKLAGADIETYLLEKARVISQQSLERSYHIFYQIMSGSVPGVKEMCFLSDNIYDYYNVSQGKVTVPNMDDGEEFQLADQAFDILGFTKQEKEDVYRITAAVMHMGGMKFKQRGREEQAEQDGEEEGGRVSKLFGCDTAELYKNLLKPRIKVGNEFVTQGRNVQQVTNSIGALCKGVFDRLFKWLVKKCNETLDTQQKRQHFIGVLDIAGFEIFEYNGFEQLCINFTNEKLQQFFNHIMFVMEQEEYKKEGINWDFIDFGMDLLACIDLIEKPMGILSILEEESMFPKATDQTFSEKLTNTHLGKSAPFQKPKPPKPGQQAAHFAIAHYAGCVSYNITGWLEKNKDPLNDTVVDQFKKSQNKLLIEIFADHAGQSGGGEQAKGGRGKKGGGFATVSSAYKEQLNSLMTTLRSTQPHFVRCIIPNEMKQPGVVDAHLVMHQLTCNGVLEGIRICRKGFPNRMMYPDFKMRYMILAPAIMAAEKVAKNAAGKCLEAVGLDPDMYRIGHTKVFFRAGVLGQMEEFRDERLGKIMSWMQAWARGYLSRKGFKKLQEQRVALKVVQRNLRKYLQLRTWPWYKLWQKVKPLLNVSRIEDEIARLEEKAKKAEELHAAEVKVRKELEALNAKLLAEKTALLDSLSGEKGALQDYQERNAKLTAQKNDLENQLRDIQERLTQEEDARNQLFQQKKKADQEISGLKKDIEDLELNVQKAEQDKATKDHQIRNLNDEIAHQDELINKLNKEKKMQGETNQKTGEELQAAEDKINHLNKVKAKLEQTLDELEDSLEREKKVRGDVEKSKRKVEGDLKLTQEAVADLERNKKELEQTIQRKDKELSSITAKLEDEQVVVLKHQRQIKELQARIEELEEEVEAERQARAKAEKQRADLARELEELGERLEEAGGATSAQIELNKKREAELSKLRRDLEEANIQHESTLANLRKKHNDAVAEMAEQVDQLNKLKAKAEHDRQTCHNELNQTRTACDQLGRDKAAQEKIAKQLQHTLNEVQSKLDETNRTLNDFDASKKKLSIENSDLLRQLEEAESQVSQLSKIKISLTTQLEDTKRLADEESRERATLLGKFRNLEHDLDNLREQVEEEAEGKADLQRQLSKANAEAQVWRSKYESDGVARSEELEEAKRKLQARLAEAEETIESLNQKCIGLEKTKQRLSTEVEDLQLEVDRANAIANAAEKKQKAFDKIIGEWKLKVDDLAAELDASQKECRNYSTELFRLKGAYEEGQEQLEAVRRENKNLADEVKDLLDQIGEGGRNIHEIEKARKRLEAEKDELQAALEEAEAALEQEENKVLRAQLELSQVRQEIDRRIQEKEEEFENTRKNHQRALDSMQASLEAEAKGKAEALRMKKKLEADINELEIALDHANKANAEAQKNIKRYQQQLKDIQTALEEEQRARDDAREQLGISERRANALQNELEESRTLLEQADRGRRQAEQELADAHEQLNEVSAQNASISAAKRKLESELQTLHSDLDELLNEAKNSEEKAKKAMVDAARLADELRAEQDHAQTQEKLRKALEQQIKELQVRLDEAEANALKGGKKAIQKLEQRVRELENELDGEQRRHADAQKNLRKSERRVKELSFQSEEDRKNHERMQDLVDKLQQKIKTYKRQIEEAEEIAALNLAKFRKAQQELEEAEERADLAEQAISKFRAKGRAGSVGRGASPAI

## HWVRPKFLQYKYMYNYRTNYYDDVIDYIDKKQTGVAREIPRPQTWAERVLRT [WYR]
[1]; Kd 95% CI, 95% confidence interval of Kd, co-sedimentation
  Kd: 1.55 to 2.76 µM
[1]; upon centrifugation at the WYR/LMM ratio used in CD experiments
  LMM sedimenting in the presence of WYR: ~ 30%

B1: Flightin (WYR domain) 84-136 (protein)
chain: HWVRPKFLQYKYMYNYRTNYYDDVIDYIDKKQTGVAREIPRPQTWAERVLRTR
[2]
  Kd: 2.06 µM

B2: LMM: 68.9 kDa 602 aa peptide encompassing V1346 through I1941 of D. melanogaster myosin heavy-chain with an N-terminal 6× His-tag (protein, UniProt P05661 1346-1941, looked up, fragment)
chain: T2 chain
modifications: N-terminal 6xHis tag
notes: 68.9 kDa 602 aa peptide encompassing V1346 through I1941 of D. melanogaster myosin heavy-chain with an N-terminal 6× His-tag
[3]; 208 nm magnitude, [LMM] 2 µM
  fractional alpha helical composition: 28.5%
[3]; 208 nm magnitude, [LMM] 10 µM
  fractional alpha helical composition: 28.7%
[3]; 222 nm magnitude, [LMM] 2 µM
  fractional alpha helical composition: 18.1%
[3]; 222 nm magnitude, [LMM] 10 µM
  fractional alpha helical composition: 19.1%
[3]; 230-240 nm slope, [LMM] 2 µM
  fractional alpha helical composition: 14.2%
[3]; 230-240 nm slope, [LMM] 10 µM
  fractional alpha helical composition: 15.3%
[3]; BeStSel (190-260), [LMM] 2 µM
  fractional alpha helical composition: 11.3%
[3]; BeStSel (190-260), [LMM] 10 µM
  fractional alpha helical composition: 15.6%
[3]; CDSSTR (SMP180), [LMM] 2 µM
  fractional alpha helical composition: 8%
[3]; CDSSTR (SMP180), [LMM] 10 µM
  fractional alpha helical composition: 17.9%
[3]; CONTIN (SMP180), [LMM] 10 µM
  fractional alpha helical composition: 8.2%
[3]; K2D, [LMM] 2 µM
  fractional alpha helical composition: 19%
[3]; K2D, [LMM] 10 µM
  fractional alpha helical composition: 22%
[3]; LMM 2 µM
  CD maximum wavelength: 193-194 nm
[3]; LMM 10 µM (higher concentration)
  CD maximum wavelength: 197-198 nm
[3]; [LMM] 2 µM (low)
  222/208 ratio: 1.08
[3]; [LMM] 10 µM (high)
  222/208 ratio: 1.17
[3]; high concentration
  helicity, range over methods: 15.3 to 28.7%
[3]; higher LMM concentration (10 µM)
  α helical content, range over methods: 8.2–28.7%
[3]; low concentration
  helicity, range over methods: 14.2 to 28.5%
[3]; lower LMM concentration (2 µM)
  α helical content, range over methods: 8–28.5%
